Assay results: US20190262398, “TIM3 HOMING ENDONUCLEASE VARIANTS, COMPOSITIONS, AND METHODS OF USE” (bluebird bio, Inc., published 2019)

Legend:
[1] = target: T1, TIM3_rd3.22 HE (I-OnuI variant) (Artificial (I-OnuI from Ophiostoma …)); assay: flow; yeast surface display substrate titration; stated as subnanomolar affinity; settings: tags: yeast surface display
T1 chain: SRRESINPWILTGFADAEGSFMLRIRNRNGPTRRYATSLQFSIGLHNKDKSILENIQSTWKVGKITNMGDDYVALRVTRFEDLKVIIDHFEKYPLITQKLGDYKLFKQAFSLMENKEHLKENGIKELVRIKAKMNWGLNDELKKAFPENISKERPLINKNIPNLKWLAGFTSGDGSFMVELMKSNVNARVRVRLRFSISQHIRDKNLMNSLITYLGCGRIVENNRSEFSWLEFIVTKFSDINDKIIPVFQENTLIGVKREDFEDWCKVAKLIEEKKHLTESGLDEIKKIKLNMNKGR

[2] = target: T2, TIM3_rd3.22 HE (I-OnuI variant), mammalian expression (Artificial (I-OnuI from Ophiostoma …)); assay: cell_activity; HEK293T chromosomal mCherry reporter; approx 4-fold higher rate of mCherry cells after refinement
T2 chain: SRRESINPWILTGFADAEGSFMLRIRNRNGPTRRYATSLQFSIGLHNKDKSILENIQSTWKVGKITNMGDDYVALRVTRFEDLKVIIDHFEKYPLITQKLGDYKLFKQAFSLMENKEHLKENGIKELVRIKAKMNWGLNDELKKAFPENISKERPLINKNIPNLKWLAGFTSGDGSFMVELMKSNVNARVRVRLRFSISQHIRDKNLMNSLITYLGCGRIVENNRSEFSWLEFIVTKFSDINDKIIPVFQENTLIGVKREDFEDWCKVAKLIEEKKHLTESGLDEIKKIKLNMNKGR
Protocol: The activity of reprogrammed I-OnuI HEs that target exon 2 of the TIM3 gene was measured using a chromosomally integrated fluorescent reporter system (Certo et. al., 2011). Fully reprogrammed I-OnuI HEs that bind and cleave the TIM3 target sequence were cloned into mammalian expression plasmids and then individually transfected into a HEK 293T […] cell line that was reprogrammed to contain the TIM3 target sequence upstream of an out-of-frame gene encoding the fluorescent mCherry protein. Cleavage of the embedded target site by the HE and the subsequent accumulation of small insertions or deletions, caused by DNA repair via the non-homologous end joining (NHEJ) pathway, results in approximately one out of three repaired loci placing the fluorescent reporter gene back “in-frame”. mCherry fluorescence is therefore a readout of endonuclease activity at the chromosomally embedded target sequence. […] FIG. 3 (top panel).
A secondary I-OnuI variant library was generated by performing random mutagenesis on one of the reprogrammed I-OnuI HEs that targets the TIM3 target site identified in the initial reporter screen (TIM3_rd1.12, SEQ ID NO: 6). In addition, display-based flow sorting was performed under more stringent cleavage conditions in an effort to isolate variants with improved catalytic efficiency. FIG. 3 (middle panel). […]

B1: TIM3 exon 2 HE target site (dsDNA)
DNA 1: TGTCCAATAATTCACATCCCTT
DNA 2: AAGGGATGTGAATTATTGGACA
Kd [1]: < 1 nM
activity [2]: ~4 fold
